± gives the standard deviation of the averaged measurements.
Experiments:
[1] = tested on: MCF7; assay: percentage of EdU-negative (G0-arrested) nuclei per well, 72 h; higher = more G0 arrest; conditions: reference: sequence is the full UniProt precursor, the tested protein was the secreted form or ectodomain
[2] = tested on: hTERT-HMEC; assay: as above; conditions: reference: sequence is the full UniProt precursor, the tested protein was the secreted form or ectodomain
[3] = protein concentration 0.0225 µM
[4] = protein concentration 0.0140425 µM
[5] = protein concentration 0.140425 µM
[6] = protein concentration 0.0284475 µM
[7] = protein concentration 0.284475 µM
[8] = protein concentration 0.01575 µM
[9] = protein concentration 0.1575 µM
[10] = protein concentration 0.02175 µM
[11] = protein concentration 0.2175 µM
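Also: secreted proteins added to cultured cells, EdU pulse at the end, nuclei found by Hoechst imaging, EdU status from nuclear versus surrounding ring intensity ratio, PBS as neutral control.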

Sequence | percentage of EdU-negative [1, 3] | percentage of EdU-negative ([1]; protein concentration 0.225 µM) | percentage of EdU-negative [2, 3] | percentage of EdU-negative ([2]; protein concentration 0.225 µM) | further results
MALRRPPRLRLCARLPDFFLLLLFRGCLIGAVNLKSSNRTPVVQEFESVELSCIITDSQTSDPRIEWKKIQDEQTTYVFFDNKIQGDLAGRAEILGKTSLKIWNVTRRDSALYRCEVVARNDRKEIDEIVIELTVQVKPVTPVCRVPKAVPVGKMATLHCQESEGHPRPHYSWYRNDVPLPTDSRANPRFRNSSFHLNSETGTLVFTAVHKDDSGQYYCIASNDAGSARCEEQEMEVYDLNIGGIIGGVLVVLAVLALITLGICCAYRRGYFINNKQDGESYKNPGKPDGVNYIRTDEEGDFRHKSSFVI [Q9BX67] | 21.3 ± 0.85% | 24.5 ± 2.1% | 4.86 ± 0.27% | 5.13 ± 0.74% | 
MNGFASLLRRNQFILLVLFLLQIQSLGLDIDSRPTAEVCATHTISPGPKGDDGEKGDPGEEGKHGKVGRMGPKGIKGELGDMGDQGNIGKTGPIGKKGDKGEKGLLGIPGEKGKAGTVCDCGRYRKFVGQLDISIARLKTSMKFVKNVIAGIRETEEKFYYIVQEEKNYRESLTHCRIRGGMLAMPKDEAANTLIADYVAKSGFFRVFIGVNDLEREGQYMFTDNTPLQNYSNWNEGEPSDPYGHEDCVEMLSSGRWNDTECHLTMYFVCEFIKKKK [Q9Y6Z7] | 24.36 ± 0.1% | 29.1 ± 0.55% | 5.319 ± 0.012% | 7.17 ± 1.1% | 
MALSWVLTVLSLLPLLEAQIPLCANLVPVPITNATLDRITGKWFYIASAFRNEEYNKSVQEIQATFFYFTPNKTEDTIFLREYQTRQNQCFYNSSYLNVQRENGTVSRYEGGREHVAHLLFLRDTKTLMFGSYLDDEKNWGLSFYADKPETTKEQLGEFYEALDCLCIPRSDVMYTDWKKDKCEPLEKQHEKERKQEEGES | 25.4 ± 2.9% | 25.1 ± 3.5% | 4.9 ± 0.092% | 5.06 ± 0.15% | 
MRTIAILAAILLVALQAQAESLQERADEATTQKQSGEDNQDLAISFAGNGLSALRTSGSQARATCYCRTGRCATRESLSGVCEISGRLYRLCCR | 27.1 ± 0.85% | 25.5 ± 1.3% | 4.85 ± 0.56% | 5.716 ± 0.019% | 
MHLRLISWLFIILNFMEYIGSQNASRGRRQRRMHPNVSQGCQGGCATCSDYNGCLSCKPRLFFALERIGMKQIGVCLSSCPSGYYGTRYPDINKCTKCKADCDTCFNKNFCTKCKSGFYLHLGKCLDNCPEGLEANNHTMECVSIVHCEVSEWNPWSPCTKKGKTCGFKRGTETRVREIIQHPSAKGNLCPPTNETRKCTVQRKKCQKGERGKKGRERKRKKPNKGESKEAIPDSKSLESSKEIPEQRENKQQQKKRKVQDKQKSVSVSTVH [Q9BXY4] |  |  |  |  | percentage of EdU-negative [1, 4]: 23.8 ± 0.26%; percentage of EdU-negative [1, 5]: 24.3 ± 1.6%; percentage of EdU-negative [2, 4]: 4.43 ± 0.65%; percentage of EdU-negative [2, 5]: 5.27 ± 0.29%
MPRQLSAAAALFASLAVILHDGSQMRAKAFPETRDYSQPTAAATVQDIKKPVQQPAKQAPHQTLAARFMDGHITFQTAATVKIPTTTPATTKNTATTSPITYTLVTTQATPNNSHTAPPVTEVTVGPSLAPYSLPPTITPPAHTTGTSSSTVSHTTGNTTQPSNQTTLPATLSIALHKSTTGQKPVQPTHAPGTTAAAHNTTRTAAPASTVPGPTLAPQPSSVKTGIYQVLNGSRLCIKAEMGIQLIVQDKESVFSPRRYFNIDPNATQASGNCGTRKSNLLLNFQGGFVNLTFTKDEESYYISEVGAYLTVSDPETIYQGIKHAVVMFQTAVGHSFKCVSEQSLQLSAHLQVKTTDVQLQAFDFEDDHFGNVDECSSDYTIVLPVIGAIVVGLCLMGMGVYKIRLRCQSSGYQRI [Q9UQV4] |  |  |  |  | percentage of EdU-negative [1, 6]: 25.5 ± 0.37%; percentage of EdU-negative [1, 7]: 26.2 ± 0.31%; percentage of EdU-negative [2, 6]: 5.03 ± 0.35%; percentage of EdU-negative [2, 7]: 5.04 ± 0.52%
MRTVVLTMKASVIEMFLVLLVTGVHSNKETAKKIKRPKFTVPQINCDVKAGKIIDPEFIVKCPAGCQDPKYHVYGTDVYASYSSVCGAAVHSGVLDNSGGKILVRKVAGQSGYKGSYSNGVQSLSLPRWRESFIVLESKPKKGVTYPSALTYSSSKSPAAQAGETTKAYQRPPIPGTTAQPVTLMQLLAVTVAVATPTTLPRPSPSAASTTSIPRPQSVGHRSQEMDLWSTATYTSSQNRPRADPGIQRQDPSGAAFQKPVGADVSLGLVPKEELSTQSLEPVSLGDPNCKIDLSFLIDGSTSIGKRRFRIQKQLLADVAQALDIGPAGPLMGVVQYGDNPATHFNLKTHTNSRDLKTAIEKITQRGGLSNVGRAISFVTKNFFSKANGNRSGAPNVVVVMVDGWPTDKVEEASRLARESGINIFFITIEGAAENEKQYVVEPNFANKAVCRTNGFYSLHVQSWFGLHKTLQPLVKRVCDTDRLACSKTCLNSADIGFVIDGSSSVGTGNFRTVLQFVTNLTKEFEISDTDTRIGAVQYTYEQRLEFGFDKYSSKPDILNAIKRVGYWSGGTSTGAAINFALEQLFKKSKPNKRKLMILITDGRSYDDVRIPAMAAHLKGVITYAIGVAWAAQEELEVIATHPARDHSFFVDEFDNLHQYVPRIIQNICTEFNSQPRN [Q6UXI7] |  |  |  |  | percentage of EdU-negative [1, 8]: 27 ± 0.45%; percentage of EdU-negative [1, 9]: 23.4 ± 0.87%; percentage of EdU-negative [2, 8]: 5.15 ± 0.69%; percentage of EdU-negative [2, 9]: 6.71 ± 1.1%
MSAVLLLALLGFILPLPGVQALLCQFGTVQHVWKVSDLPRQWTPKNTSCDSGLGCQDTLMLIESGPQVSLVLSKGCTEAKDQEPRVTEHRMGPGLSLISYTFVCRQEDFCNNLVNSLPLWAPQPPADPGSLRCPVCLSMEGCLEGTTEEICPKGTTHCYDGLLRLRGGGIFSNLRVQGCMPQPGCNLLNGTQEIGPVGMTENCNRKDFLTCHRGTTIMTHGNLAQEPTDWTTSNTEMCEVGQVCQETLLLLDVGLTSTLVGTKGCSTVGAQNSQKTTIHSAPPGVLVASYTHFCSSDLCNSASSSSVLLNSLPPQAAPVPGDRQCPTCVQPLGTCSSGSPRMTCPRGATHCYDGYIHLSGGGLSTKMSIQGCVAQPSSFLLNHTRQIGIFSAREKRDVQPPASQHEGGGAEGLESLTWGVGLALAPALWWGVVCPSC [Q8N6Q3] |  |  |  |  | percentage of EdU-negative [1, 10]: 26.1 ± 2.3%; percentage of EdU-negative [1, 11]: 26.7 ± 1%; percentage of EdU-negative [2, 10]: 4.87 ± 0.96%; percentage of EdU-negative [2, 11]: 6.31 ± 0.15%
MAGPPRLLLLPLLLALARGLPGALAAQEVQQSPHCTTVPVGASVNITCSTSGGLRGIYLRQLGPQPQDIIYYEDGVVPTTDRRFRGRIDFSGSQDNLTITMHRLQLSDTGTYTCQAITEVNVYGSGTLVLVTEEQSQGWHRCSDAPPRASALPAPPTGSALPDPQTASALPDPPAASALPAALAVISFLLGLGLGVACVLARTQIKKLCSWRDKNSAACVVYEDMSHSRCNTLSSPNQYQ | 25.1 ± 0.98% | 24.68 ± 0.088% | 5.29 ± 0.21% | 4.88 ± 0.12% | 
MAILMLSLQLILLLIPSISHEAHKTSLSSWKHDQDWANVSNMTFSNGKLRVKGIYYRNADICSRHRVTSAGLTLQDLQLWCNLRSVARGQIPSTL [Q6UY13] | 26.9 ± 1.6% | 27.81 ± 0.22% | 4.87 ± 0.78% | 5.92 ± 0.39% | 
MGLGTLSPRMLVWLVASGIVFYGELWVCAGLDYDYTFDGNEEDKTETIDYKDPCKAAVFWGDIALDDEDLNIFQIDRTIDLTQNPFGNLGHTTGGLGDHAMSKKRGALYQLIDRIRRIGFGLEQNNTVKGKVPLQFSGQNEKNRVPRAATSRTERIWPGGVIPYVIGGNFTGSQRAMFKQAMRHWEKHTCVTFIERSDEESYIVFTYRPCGCCSYVGRRGNGPQAISIGKNCDKFGIVVHELGHVIGFWHEHTRPDRDNHVTIIRENIQPGQEYNFLKMEPGEVNSLGERYDFDSIMHYARNTFSRGMFLDTILPSRDDNGIRPAIGQRTRLSKGDIAQARKLYRCPACGETLQESNGNLSSPGFPNGYPSYTHCIWRVSVTPGEKIVLNFTTMDLYKSSLCWYDYIEVRDGYWRKSPLLGRFCGDKLPEVLTSTDSRMWIEFRSSSNWVGKGFAAVYEAICGGEIRKNEGQIQSPNYPDDYRPMKECVWKITVSESYHVGLTFQSFEIERHDNCAYDYLEVRDGTSENSPLIGRFCGYDKPEDIRSTSNTLWMKFVSDGTVNKAGFAANFFKEEDECAKPDRGGCEQRCLNTLGSYQCACEPGYELGPDRRSCEAACGGLLTKLNGTITTPGWPKEYPPNKNCVWQVVAPTQYRISVKFEFFELEGNEVCKYDYVEIWSGLSSESKLHGKFCGAEVPEVITSQFNNMRIEFKSDNTVSKKGFKAHFFSDKDECSKDNGGCQHECVNTMGSYMCQCRNGFVLHDNKHDCKEAECEQKIHSPSGLITSPNWPDKYPSRKECTWEISATPGHRIKLAFSEFEIEQHQECAYDHLEVFDGETEKSPILGRLCGNKIPDPLVATGNKMFVRFVSDASVQRKGFQATHSTECGGRLKAESKPRDLYSHAQFGDNNYPGQVDCEWLLVSERGSRLELSFQTFEVEEEADCGYDYVELFDGLDSTAVGLGRFCGSGPPEEIYSIGDSVLIHFHTDDTINKKGFHIRYKSIRYPDTTHTKK |  |  |  |  | percentage of EdU-negative ([1]; protein concentration 0.014 µM): 24.6 ± 2.5%; percentage of EdU-negative ([1]; protein concentration 0.14 µM): 29.6 ± 1.9%; percentage of EdU-negative ([2]; protein concentration 0.014 µM): 4.501 ± 0.026%; percentage of EdU-negative ([2]; protein concentration 0.14 µM): 5.35 ± 1.3%
MRAPHLHLSAASGARALAKLLPLLMAQLWAAEAALLPQNDTRLDPEAYGSPCARGSQPWQVSLFNGLSFHCAGVLVDQSWVLTAAHCGNKPLWARVGDDHLLLLQGEQLRRTTRSVVHPKYHQGSGPILPRRTDEHDLMLLKLARPVVLGPRVRALQLPYRCAQPGDQCQVAGWGTTAARRVKYNKGLTCSSITILSPKECEVFYPGVVTNNMICAGLDRGQDPCQSDSGGPLVCDETLQGILSWGVYPCGSAQHPAVYTQICKYMSWINKVIRSN | 26.7 ± 0.38% | 26.9 ± 1.7% | 3.89 ± 0.14% | 6.32 ± 0.7% | 
MRRLLIPLALWLGAVGVGVAELTEAQRRGLQVALEEFHKHPPVQWAFQETSVESAVDTPFPAGIFVRLEFKLQQTSCRKRDWKKPECKVRPNGRKRKCLACIKLGSEDKVLGRLVHCPIETQVLREAEEHQETQCLRVQRAGEDPHSFYFPGQFAFSKALPRS | 27.7 ± 0.92% | 26.6 ± 2.6% | 4.71 ± 0.87% | 5.88 ± 0.56% | 
MGLHLRPYRVGLLPDGLLFLLLLLMLLADPALPAGRHPPVVLVPGDLGNQLEAKLDKPTVVHYLCSKKTESYFTIWLNLELLLPVIIDCWIDNIRLVYNKTSRATQFPDGVDVRVPGFGKTFSLEFLDPSKSSVGSYFHTMVESLVGWGYTRGEDVRGAPYDWRRAPNENGPYFLALREMIEEMYQLYGGPVVLVAHSMGNMYTLYFLQRQPQAWKDKYIRAFVSLGAPWGGVAKTLRVLASGDNNRIPVIGPLKIREQQRSAVSTSWLLPYNYTWSPEKVFVQTPTINYTLRDYRKFFQDIGFEDGWLMRQDTEGLVEATMPPGVQLHCLYGTGVPTPDSFYYESFPDRDPKICFGDGDGTVNLKSALQCQAWQSRQEHQVLLQELPGSEHIEMLANATTLAYLKRVLLGP [Q8NCC3] | 25.3 ± 2.1% | 24.9 ± 0.58% | 4.6 ± 0.49% | 6.68 ± 0.68% | 
MQWLRVRESPGEATGHRVTMGTAALGPVWAALLLFLLMCEIPMVELTFDRAVASGCQRCCDSEDPLDPAHVSSASSSGRPHALPEIRPYINITILKGDKGDPGPMGLPGYMGREGPQGEPGPQGSKGDKGEMGSPGAPCQKRFFAFSVGRKTALHSGEDFQTLLFERVFVNLDGCFDMATGQFAAPLRGIYFFSLNVHSWNYKETYVHIMHNQKEAVILYAQPSERSIMQSQSVMLDLAYGDRVWVRLFKRQRENAIYSNDFDTYITFSGHLIKAEDD [Q9BXI9] | 26.9 ± 1.5% | 29.5 ± 1.2% | 4.57 ± 0.33% | 4.82 ± 1.2% | 
